Assay results as given in article PMC10815921, “Mimicking Protein Kinase C Phosphorylation Inhibits Arc/Arg3.1 Palmitoylation and Its Interaction with Nucleic Acids” (International Journal of Molecular Sciences, 2024).

Key:
[1] = biological target: the molecule itself; test: dynamic light scattering; ~20 µM, 25 °C, 20 mM HEPES pH 7.5, 100 mM NaCl, 1 mM TCEP; Arc^WT was ammonium sulfate-treated (nucleotide-free)
[2] = biological target: the molecule itself; test: SEC; HiLoad 16/600 Superdex 200, solution B (20 mM HEPES pH 7.5, 100 mM NaCl, 0.5 mM TCEP), 4 °C; proteins prepared without ammonium sulfate treatment (bound nucleic acids kept); loads 25-70 µM

B1: Arc S84,90E phosphomimetic mutant (natural protein, mouse, UniProt Q9WV31 1-396, looked up)
chain: MELDHMTTGGLHAYPAPRGGPAAKPNVILQIGKCRAEMLEHVRRTHRHLLTEVSKQVERELKGLHRSVGKLENNLDGYVPTGDEQRWKKEIKACLCRCQETIANLERWVKREMHVWREVFYRLERWADRLESMGGKYPVGSEPARHTVSVGVGGPEPYCQEADGYDYTVSPYAITPPPAAGELPEQESVEAQQYQSWGPGEDGQPSPGVDTQIFEDPREFLSHLEEYLRQVGGSEEYWLSQIQNHMNGPAKKWWEFKQGSVKNWVEFKKEFLQYSEGTLSREAIQRELELPQKQGEPLDQFLWRKRDLYQTLYVDAEEEEIIQYVVGTLQPKLKRFLRHPLPKTLEQLIQRGMEVQDGLEQAAEPSGTPLPTEDETEALTPALTSESVASDRTQPE
notes: Arc (Arg3.1), mouse, with serines 84 and 90 mutated to glutamic acid; source: E. coli Rosetta 2, purified (glutathione resin, released with TEV protease); not shown: GST, N-terminal, cleaved
- binding result [1]: binds

B2: Arc ΔH1 (aa 33–70 deleted) (natural protein, mouse, UniProt Q9WV31 1-396, looked up)
chain: MELDHMTTGGLHAYPAPRGGPAAKPNVILQIGLENNLDGYVPTGDSQRWKKSIKACLCRCQETIANLERWVKREMHVWREVFYRLERWADRLESMGGKYPVGSEPARHTVSVGVGGPEPYCQEADGYDYTVSPYAITPPPAAGELPEQESVEAQQYQSWGPGEDGQPSPGVDTQIFEDPREFLSHLEEYLRQVGGSEEYWLSQIQNHMNGPAKKWWEFKQGSVKNWVEFKKEFLQYSEGTLSREAIQRELELPQKQGEPLDQFLWRKRDLYQTLYVDAEEEEIIQYVVGTLQPKLKRFLRHPLPKTLEQLIQRGMEVQDGLEQAAEPSGTPLPTEDETEALTPALTSESVASDRTQPE
notes: Arc (Arg3.1), mouse, lacking helix H1 (residues 33-70); Made by PCR from the full-length GST-Arc construct; source: E. coli Rosetta 2, purified (glutathione resin, released with TEV protease; with or without 35% ammonium sulfate precipitation); not shown: GST, N-terminal, cleaved
- binding result [2]: binds
